Assay results: patent US20200199241A1 (Chugai, published 2020)

T1: human FcγRIIa type R (human, UniProt P12318 36-217)
T1 construct: also called FcγRIIaR; FcγRIIa(R)
T1 chain: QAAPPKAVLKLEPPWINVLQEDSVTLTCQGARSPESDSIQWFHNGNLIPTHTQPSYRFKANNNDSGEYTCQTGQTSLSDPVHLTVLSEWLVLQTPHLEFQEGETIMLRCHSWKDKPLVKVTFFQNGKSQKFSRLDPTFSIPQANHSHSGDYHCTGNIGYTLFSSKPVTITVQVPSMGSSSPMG

T2: human FcγRIIa type H (human, UniProt P12318 36-217)
T2 construct: also called FcγRIIaH; FcγRIIa(H)
T2 sequence: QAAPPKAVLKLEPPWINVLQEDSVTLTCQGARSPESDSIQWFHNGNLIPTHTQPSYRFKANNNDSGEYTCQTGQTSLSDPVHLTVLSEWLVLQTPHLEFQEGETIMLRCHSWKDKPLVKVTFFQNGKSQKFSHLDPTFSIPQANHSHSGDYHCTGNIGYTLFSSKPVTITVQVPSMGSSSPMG

T3: human FcγRIIb (human, UniProt P31994 43-217, limits assumed)
T3 construct: also called FcγIIB
T3 sequence: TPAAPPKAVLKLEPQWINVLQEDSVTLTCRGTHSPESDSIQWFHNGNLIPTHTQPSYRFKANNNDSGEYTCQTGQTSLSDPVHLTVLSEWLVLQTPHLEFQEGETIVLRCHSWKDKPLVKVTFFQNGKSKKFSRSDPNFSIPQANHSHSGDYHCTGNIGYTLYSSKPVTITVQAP


Key:
Assay in all cases: SPR (Biacore), binding amount relative to IL6R-BF648/IL6R-L = 100
human FcγRIa = biological target: T4, human FcγRIa (human, UniProt P12314 16-292, limits assumed)
T4 construct: also called CD64

human FcγRIIa type R = biological target: T1, human FcγRIIa type R
human FcγRIIa type H = biological target: T2, human FcγRIIa type H
human FcγRIIb = biological target: T3, human FcγRIIb

T4 sequence (P12314 16-292 limits assumed): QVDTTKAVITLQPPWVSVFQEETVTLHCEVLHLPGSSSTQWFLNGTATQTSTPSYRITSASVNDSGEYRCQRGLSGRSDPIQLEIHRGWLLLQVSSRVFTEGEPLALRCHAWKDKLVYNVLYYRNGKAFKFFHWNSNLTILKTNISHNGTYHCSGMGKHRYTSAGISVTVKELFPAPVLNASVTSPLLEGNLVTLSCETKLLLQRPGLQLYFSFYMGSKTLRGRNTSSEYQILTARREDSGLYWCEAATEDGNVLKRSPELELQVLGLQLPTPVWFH

Binder	relative binding (human FcγRIa)	relative binding (human FcγRIIa type R)	relative binding (human FcγRIIa type H)	relative binding (human FcγRIIb)
IL6R-BP112/IL6R-L (antibody, human IgG1, Alteration introduced into IL6R-B3; also called P238D/P271G) heavy: QVQLQESGPGLVKPSETLSLTCAVSGHSISHDHAWSWVRQPPGEGLEWIGFISYSGITNYNPSLQGRVTISRDNSKNTLYLQMNSLRAEDTAVYYCARSLARTTAMDYWGEGTLVTVSSASTKGPSVFPLAPSSKSTSGGTAALGCLVKDYFPEPVTVSWNSGALTSGVHTFPAVLQSSGLYSLSSVVTVPSSSLGTQTYICNVNHKPSNTKVDKKVEPKSCDKTHTCPPCPAPELLGGDSVFLFPPKPKDTLMISRTPEVTCVVVDVSHEDGEVKFNWYVDGVEVHNAKTKPREEQYNSTYRVVSVLTVLHQDWLNGKEYKCKVSNKALPAPIEKTISKAKGQPREPQVYTLPPSRDELTKNQVSLTCLVKGFYPSDIAVEWESNGQPENNYKTTPPVLDSDGSFFLYSKLTVDKSRWQQGNVFSCSVMHEALHNHYTQESLSLSP light: DIQMTQSPSSLSASVGDRVTITCRASQDISSYLNWYQQKPGKAPKLLIYYTSRLHSGVPSRFSGSGSGTDFTFTISSLQPEDIATYYCQQGNTLPYTFGQGTKVEIK	119	340	113	157
IL6R-BP120/IL6R-L (antibody, human IgG1, Alteration introduced into IL6R-B3; also called P238D/K326E) heavy: QVQLQESGPGLVKPSETLSLTCAVSGHSISHDHAWSWVRQPPGEGLEWIGFISYSGITNYNPSLQGRVTISRDNSKNTLYLQMNSLRAEDTAVYYCARSLARTTAMDYWGEGTLVTVSSASTKGPSVFPLAPSSKSTSGGTAALGCLVKDYFPEPVTVSWNSGALTSGVHTFPAVLQSSGLYSLSSVVTVPSSSLGTQTYICNVNHKPSNTKVDKKVEPKSCDKTHTCPPCPAPELLGGDSVFLFPPKPKDTLMISRTPEVTCVVVDVSHEDPEVKFNWYVDGVEVHNAKTKPREEQYNSTYRVVSVLTVLHQDWLNGKEYKCKVSNEALPAPIEKTISKAKGQPREPQVYTLPPSRDELTKNQVSLTCLVKGFYPSDIAVEWESNGQPENNYKTTPPVLDSDGSFFLYSKLTVDKSRWQQGNVFSCSVMHEALHNHYTQESLSLSP light: DIQMTQSPSSLSASVGDRVTITCRASQDISSYLNWYQQKPGKAPKLLIYYTSRLHSGVPSRFSGSGSGTDFTFTISSLQPEDIATYYCQQGNTLPYTFGQGTKVEIK	125	175	–	114
IL6R-BP117/IL6R-L (antibody, human IgG1, Alteration introduced into IL6R-B3; also called P238D/K326D) heavy: QVQLQESGPGLVKPSETLSLTCAVSGHSISHDHAWSWVRQPPGEGLEWIGFISYSGITNYNPSLQGRVTISRDNSKNTLYLQMNSLRAEDTAVYYCARSLARTTAMDYWGEGTLVTVSSASTKGPSVFPLAPSSKSTSGGTAALGCLVKDYFPEPVTVSWNSGALTSGVHTFPAVLQSSGLYSLSSVVTVPSSSLGTQTYICNVNHKPSNTKVDKKVEPKSCDKTHTCPPCPAPELLGGDSVFLFPPKPKDTLMISRTPEVTCVVVDVSHEDPEVKFNWYVDGVEVHNAKTKPREEQYNSTYRVVSVLTVLHQDWLNGKEYKCKVSNDALPAPIEKTISKAKGQPREPQVYTLPPSRDELTKNQVSLTCLVKGFYPSDIAVEWESNGQPENNYKTTPPVLDSDGSFFLYSKLTVDKSRWQQGNVFSCSVMHEALHNHYTQESLSLSP light: DIQMTQSPSSLSASVGDRVTITCRASQDISSYLNWYQQKPGKAPKLLIYYTSRLHSGVPSRFSGSGSGTDFTFTISSLQPEDIATYYCQQGNTLPYTFGQGTKVEIK	124	166	96	118
